Data: US20080113907A1, “Uses Of Galectin-2” (Charite-Universitat-Smedizin Berlin, priority 2004, published 2008)

Columns and labels:
[1] = test system: caspase-3; experiment: Caspase activity by flow cytometry; type: cell-based, human; conditions: anti-CD3 activated PBT, 50 μg/ml, 24 h
Procedure: (§1) To measure caspase activity, 5×10^5 PBT were incubated in the presence or absence of 50 μg/ml galectin-2 together with derivates of the PE-labelled affinity purified anti-caspase-3 Ab (BD Pharmingen), the carboxyfluorescein-labelled caspase-8 inhibitor FAM-LETD-fmk or caspase-9 inhibitor FAM-LEHD-fmk (both from Biocharta, Hamburg, Germany), all binding irreversibly to activated caspase-3, -8 or -9, respectively. Cells were than analyzed by flow cytometry (FACS-Calibur, BD) and the increase of caspase activity determined after proper gating in correlation to untreated cells.

[2] = test system: caspase-9; experiment: Caspase activity by flow cytometry; type: cell-based, human; conditions: anti-CD3 activated PBT, 50 μg/ml, 24 h
Procedure: as §1

[3] = test system: PBT; experiment: Analysis of T cell cycling (DNA content, cyclin B1, cell cycle regulators); type: cell-based, human
Procedure: (§2) For immunoblotting cells were washed in PBS, and lysed in cell lysis buffer (1% Triton-X, 0.5% NP-40, 0.1% SDS, 0.5% sodium deoxycholate, 5 mM EDTA, 50 mM and 50 mM protease- and phosphatase-inhibitor cocktail 2, 1 mM PMSF, 100 μg/ml trypsin-chymotrypsin inhibitor, 100 μg/ml chymostatin in PBS). The concentration of proteins in each lysate was measured using the Bio-Rad protein assay (Bio-Rad Laboratories, Hercules, Calif.). Equivalent amounts of protein (10 μg) were fractionated on a 10-20% Tris-glycine gel and electrotransferred to a nitrocellulose membrane (Novex, San Diego, Calif.). Membranes were blocked with 5% milk in 0.1% Tween 20-PBS (Fisher Scientific, Hanover Park, Ill.), followed by incubation for 60 m in at room temperature with the indicated primary antibody. The membranes were washed six times with 0.1% Tween 20-PBS and then incubated for 1 h with the appropriate horseradish peroxidase-conjugated secondary antibody (Santa Cruz Biotechnology), washed, and incubated with the chemiluminescent substrate (Perkin-Elmer, Carlsbad, Calif.) for 5 minutes. The membranes were then exposed to film (Amersham, Arlington Heights, Ill.).
Flow cytometry was performed after staining for DNA content, and cyclin B1, essentially as previously described (21). Briefly, cells were washed twice with PBS, adjusted to 1×10^6 cells/sample and fixed in 90% Methanol at −20° C. After fixation, cells were washed twice with PBS, incubated for 45 min at 4° C. with a cyclin B1-FITC conjugated monoclonal antibody. After the final wash, cells were resupended in PBS and 5 μl of RNase (0.6 μg/ml, 30-60 Kunitz Units, Sigma), incubated at 37° C. for 15 min and the chilled on ice. One hundred and twenty five microliters of PI (200 μg/ml) were added prior to analysis by flow cytometry. Each analysis was performed on at least 25.000 events.

[4] = test system: PBT; experiment: Cytokine secretion (cytometric bead array); type: cell-based, human
Procedure: To determine cytokine secretion, PBT were cultured for 48 h with or without anti-CD3 mAb and incubated in the presence or absence of 0, 10, or 50 μg/ml Gal-2. The supernatant was then collected and cytokine secretion determined by a cytometric bead array, performed according to the manufacturer's instruction (BD Pharmingen). Briefly, six bead populations with distinct fluorescence intensities, coated with capture antibodies specific for TNF-α, IFN-γ, IL-10, IL-5, IL-4, and IL-2 proteins, were mixed with PE-conjugated detection anti-bodies and incubated with recombinant standards or test sample to form sandwich complexes. Following acquisition of sample data using flow cytometry, the cytokine concentrations were calculated using the BD CBA analysis software.

[5] = test system: T cells (PBT, LPT); experiment: Integrin accessibility on T cell surface (flow cytometry); type: cell-based, human
Procedure: (§3) For surface staining, cells were washed twice in ice-cold PBS and 1×10^6 cells were resuspended in flow buffer (HBSS containing 1% BSA and 0.1% sodium azide). Cells were incubated with the respective mAb at predetermined saturating concentrations or with isotype-matched nonspecific mouse mAb (DAKO) for 30 min at 4° C., washed twice with flow buffer, and incubated with FITC-conjugated goat anti-mouse IgG for 30 min at 4° C. The cells were again washed twice with flow buffer, fixed in 1% paraformaldehyde and analyzed by a single laser flow cytometer (FacsCalibur, […]), using Cell Quest software (BD Pharmingen). Cells stained with a negative control Ab were gated to contain <2% positive cells. To perform analysis of intracellular proteins, cells were washed twice with PBS, adjusted to 1×10^6 cells per sample, and fixed in 90% methanol at −20° C. After fixation, cells were washed twice with PBS and incubated with a monoclonal mouse anti-bax, Bcl-2, Rb, Cyclin A, p21, p27, or p53 antibody for 45 minutes at 4° C., followed by an incubation with a goat anti-mouse FITC-conjugated mAb (Biosource) for 45 minutes at 4° C. Thereafter cells were washed and analyzed by flow cytometry as described above. The background level of immunofluorescence was determined by incubating cells with FITC-conjugated mouse IgG (isotype control).

[6] = test system: T cells; experiment: Binding of biotinylated Gal-2 to T lymphocytes (flow cytometry); design: species or system human
Procedure: To measure Gal-2 binding to T lymphocytes, aliquots of cell suspensions were kept as controls or stimulated for 1, 6, 12, 24, 48, and 72 h with anti-CD3 mAb or PMA and PHA and incubated in the presence of 5 μg/ml biotin-labeled Gal-2. Cells were then harvested, washed and stained with anti-CD3-FITC mAb and APC-labeled streptavidin (Biosource) followed by flow cytofluorometric analysis. Cells cultured in the absence of biotin-labeled Gal-2 and stained with FITC-labeled mouse IgG (BD Pharmingen) or APC-labeled streptavidin served as isotype controls. Each analysis was performed on at least 20,000 events.

[7] = test system: PBT; experiment: Apoptosis regulator proteins by immunoblotting and flow cytometry; type: cell-based, human
Procedure: as §2, §3

B1: galectin-2: β-galactoside binding lectin, non-covalent dimer with subunits of about 14 kDa; recombinant human or rat (SEQ ID NO:1, 2) (protein)
chain: MAGELEVKNMDMKPGSTLKITGSIADGTDGFVINLGQGTDKLNLHFNPRFSESTIVCNSLDGSNWGQEQREDHLCFSPGSEVKFTVTFESDKFKVKLPDGHELTFPNRLGHSHLSYLSVRGGFNMSSFKLKE
B1 was tested, and the caspase-3 activity [1] was “significant increase”, the caspase-9 activity [2] was “significant increase” and the “cyclin B1 levels / cell cycle progression” value ([3]; anti-CD3 activated PBT) was “unchanged cyclin B1 levels”. The “cell cycle phase distribution” value ([3]; anti-CD3 activated PBT, 25, 50, 100 μg/ml) was “comparable”, the “protein levels of cyclin D2, Rb, cyclin A, p21, p27, p53” value ([3]; western blot, 72 h) was “did not alter protein levels” and the IFN-γ production ([4]; anti-CD3 activated T cells) was “downregulated significantly and dose-dependently”. For the same molecule, the IL-2 secretion ([4]; anti-CD3 activated T cells) was “not influenced”, the IL-4 secretion ([4]; anti-CD3 activated T cells) was “not altered” and the IL-5 secretion ([4]; anti-CD3 activated T cells) was “increasing”. The IL-10 secretion ([4]; anti-CD3 activated T cells) was “increasing”, the TNF-α production ([4]; anti-CD3 activated T cells) was “downregulated significantly and dose-dependently” and the “cytokine production of resting T cells” value ([4]; resting T cells) was “failed to modulate cytokine production of resting T cells”. For the same molecule, the β4 integrin accessibility ([5]; CD3 activated PBT) was “neither galectin-1 nor galectin-2 changed”, the “integrin α5 accessibility” value ([5]; CD3 activated PBT, 50 μg/ml) was “downregulated” and the “integrin β1 accessibility” value ([5]; CD3 activated PBT, 50 μg/ml) was “downregulated”. The “integrin a5 accessibility” value ([5]; CD3 activated PBT, second statement) was “slightly upregulated”, the “integrin β1 accessibility” value ([5]; intestinal T cells (LPT)) was “failed to modulate” and the “time bound to T cells” value [6] was “more than 72 hours”. For the same molecule, the “binding to T cells after stimulation” value ([6]; PMA/PHA or anti-CD3 antibody) was “increase in cell staining”, the “binding to T cells” value ([6]; unstimulated T cells) was “bound to unstimulated T cells in a β-galactoside-specific manner” and the bax protein expression ([7]; 0, 25, 50 μg/ml, 48 h) was “increases”. For the same molecule, the bcl-2 protein expression ([7]; 0, 25, 50 μg/ml, 48 h) was “significantly reduces”, the cytochrome c release ([7]; data not shown) was “dose-dependently increased cytochrome c release in activated, but not resting T cells” and the “DNA-fragmentation factor (DFF)” value ([7]; immunoblotting) was “dose-dependently upregulated”.
